These results are taken from the RNAGym collection of RNA variant scans (doi:10.7554/elife.80360).

The labels stand for the following.
B1: CPEB3 Ribozyme (parent)
chain: GGGGGCCACAGCAGAAGCGUUCACGUCGCGGCCCCUGUCAGAUUCUGGUGAAUCUGCGAAUUCUGCUGU

This data set covers variants of B1. The data set is described as follows: self-cleavage, relative activity (ratio to wild type); higher = more cleavage; co-transcriptional.
As for GGGGUCCACAGCAGAAGCGUUCACGUCGCGGCCCCUGUCAGAUUCUGGUGAAUCAGCGAAUUCUGCUGU [G5U U55A], the self-cleavage was determined as 0.0876.
On to GGGGUCCACAGCAGAAGCGUUCACGUCGCGGCCCCUGUCAGAUUCUGGUGAAUCGGCGAAUUCUGCUGU [G5U U55G], for which the self-cleavage was 0.0798.
Consider GGGGGACACAGCAGAAGCGUUCACGUCGCGGCGCCUGUCAGAUUCUGGUGAAUCUGCGAAUUCUGCUGU [C6A C33G], for which the self-cleavage came to 0.108.
For GGGGGACACAGCAGAAGCGUUCACGUCGCGGCUCCUGUCAGAUUCUGGUGAAUCUGCGAAUUCUGCUGU [C6A C33U] the value was 0.347; for GGGGGACUCAGCAGAAGCGUUCACGUCGCGGCCCCUGUCAGAUUCUGGUGAAUCUGCGAAUUCUGCUGU [C6A A8U], 0.607; for GGGGGACCCAGCAGAAGCGUUCACGUCGCGGCCCCUGUCAGAUUCUGGUGAAUCUGCGAAUUCUGCUGU [C6A A8C], 0.733.
Turning to GGGGGACACAGCAGAAGCGUUCACGUCGCGGCCCCUGUCAGAUUCUGGUGAAUUUGCGAAUUCUGCUGU [C6A C54U], the self-cleavage stood at 0.67.
For GGGGGACAGAGCAGAAGCGUUCACGUCGCGGCCCCUGUCAGAUUCUGGUGAAUCUGCGAAUUCUGCUGU [C6A C9G], the self-cleavage was 1.02.
As to GGGGGACAAAGCAGAAGCGUUCACGUCGCGGCCCCUGUCAGAUUCUGGUGAAUCUGCGAAUUCUGCUGU [C6A C9A], the self-cleavage is 0.961.
As to GGGGGACACAGCAGAAGCGUUCACGUCGCGGCCUCUGUCAGAUUCUGGUGAAUCUGCGAAUUCUGCUGU [C6A C34U], the self-cleavage was 0.339.
For GGGGGACACAGCAGAAGCGUUCUCGUCGCGGCCCCUGUCAGAUUCUGGUGAAUCUGCGAAUUCUGCUGU [C6A A23U], the self-cleavage came out at 0.749.
For GGGGGACACAGCAGAAGCGUUCGCGUCGCGGCCCCUGUCAGAUUCUGGUGAAUCUGCGAAUUCUGCUGU [C6A A23G], the self-cleavage was 0.511.
In the case of GGGGGACACAGCAGAAGCGUUCCCGUCGCGGCCCCUGUCAGAUUCUGGUGAAUCUGCGAAUUCUGCUGU [C6A A23C], the self-cleavage is 0.519.
On to GGGGGACACAGCAGAAGCGUUCACGUCGCGGCCCAUGUCAGAUUCUGGUGAAUCUGCGAAUUCUGCUGU [C6A C35A], for which the self-cleavage turned out to be 0.114.
For the variant GGGGGACACAGCAGAAGCGUUCACGUCGCGGCCCCUGUCAGAUUCUGGUGAAUCUGCGAAUUCUGAUGU [C6A C66A], the self-cleavage came to 0.386.
For the variant GGGGGACACAGCAGAAGCGUUCACGUCGCGGCCCCUGUCAGAUUCUGGUGAAUCUGCGAAUUCUGUUGU [C6A C66U], the self-cleavage came to 0.641.
For GGGGGACACAGCAGAAGCGUUCACGUCGCGGCCCCUGUCAGAUUCUGGUGAAUCUGCGAAUUCUGGUGU [C6A C66G], the self-cleavage is 0.44.
On to GGGGUCCACAGCAGAAGCGUUCACGUCGCGGCCCCUGUCAGAUUCUGGUGAAUCUGCGAAUUCGGCUGU [G5U U64G], for which the self-cleavage amounted to 0.194.
GGGGUCCACAGCAGAAGCGUUCACGUCGCGGCCCCUGUCAGAUUCUGGUGAAUCUGCGAAUUCCGCUGU [G5U U64C]: the self-cleavage is 0.195.
For GGGGUCCACAGCAGAAGCGUUCACGUCGCGGCCCCUGUCAGAUUCUGGUGAAUCUGCGAAUUCAGCUGU [G5U U64A] the value was 0.109; for GGGGGACACAGCAGAAGCGUUCAGGUCGCGGCCCCUGUCAGAUUCUGGUGAAUCUGCGAAUUCUGCUGU [C6A C24G], 0.0842; for GGGGGACACAGCAGAAGCGUUCAAGUCGCGGCCCCUGUCAGAUUCUGGUGAAUCUGCGAAUUCUGCUGU [C6A C24A], 0.162.
Consider GGGGGACACAGCAGAAGCGUUCACGUCGCGGCCCCUGUCAGAUUCUGGUGAAUCUGCGAGUUCUGCUGU [C6A A60G], for which the self-cleavage amounted to 0.326.
In the case of GGGGGACACAGCAGAAGCGUUCACGUCGCGGCCCCUGUCAGAUUCUGGUGAAUCUGCGAUUUCUGCUGU [C6A A60U], the self-cleavage worked out at 0.226.
For the variant GGGGGACACAGCAGAAGCGUUCACGUCGCGGCCCCUGUCAGAUUCUGGUGAAUCUGCGACUUCUGCUGU [C6A A60C], the self-cleavage is 0.17.
For GGGGGACACAGCAGAAGCGUUCACGUCGUGGCCCCUGUCAGAUUCUGGUGAAUCUGCGAAUUCUGCUGU [C6A C29U] the value was 0.234; for GGGGGACACAGCAGAAGCGUUCACGUCGAGGCCCCUGUCAGAUUCUGGUGAAUCUGCGAAUUCUGCUGU [C6A C29A], 0.213.
Turning to GGGGGACACAGAAGAAGCGUUCACGUCGCGGCCCCUGUCAGAUUCUGGUGAAUCUGCGAAUUCUGCUGU [C6A C12A], the self-cleavage was determined as 0.16.
GGGGGACACAGGAGAAGCGUUCACGUCGCGGCCCCUGUCAGAUUCUGGUGAAUCUGCGAAUUCUGCUGU [C6A C12G]: the self-cleavage came to 0.26.
As for GGGGGACACAGCAGAAGCGUUCACGUCGCGGCCCCUGUCAGAUUGUGGUGAAUCUGCGAAUUCUGCUGU [C6A C45G], the self-cleavage came out at 0.595.
As to GGGGGACACAGCAGAAGCGUUCACGUCGCGGCCCCUGUCAGAUUUUGGUGAAUCUGCGAAUUCUGCUGU [C6A C45U], the self-cleavage came out at 0.708.
For GGGGGACACAGCAAAAGCGUUCACGUCGCGGCCCCUGUCAGAUUCUGGUGAAUCUGCGAAUUCUGCUGU [C6A G14A] the value was 0.128; for GGGGGACACAGCACAAGCGUUCACGUCGCGGCCCCUGUCAGAUUCUGGUGAAUCUGCGAAUUCUGCUGU [C6A G14C], 0.101.
In the case of GGGGGACACAGCAGAAGCGUUCACGUCGCGGCCCCUGUUAGAUUCUGGUGAAUCUGCGAAUUCUGCUGU [C6A C39U], the self-cleavage stood at 0.416.
For GGGGGACACAGCAGAAGCGUUCACGUCGCGGCCCCUGUAAGAUUCUGGUGAAUCUGCGAAUUCUGCUGU [C6A C39A] the value was 0.231.
Take GGGGGACACAGCAGAGGCGUUCACGUCGCGGCCCCUGUCAGAUUCUGGUGAAUCUGCGAAUUCUGCUGU [C6A A16G]: the self-cleavage came to 0.418.
GGGGGACACAGCAGACGCGUUCACGUCGCGGCCCCUGUCAGAUUCUGGUGAAUCUGCGAAUUCUGCUGU [C6A A16C]: the self-cleavage was determined as 0.0824.
As to GGGGGACACAGCAGAUGCGUUCACGUCGCGGCCCCUGUCAGAUUCUGGUGAAUCUGCGAAUUCUGCUGU [C6A A16U], the self-cleavage turned out to be 0.159.
As for GGGGUCCACAGCAGAAGCGUUCACGUCGCGGCCCCUGUCAGAUUCUGGUGAAUCUGCGAAUACUGCUGU [G5U U62A], the self-cleavage is 0.123.
